From patent US7094554 (University of Texas, dated 2006)

How the values were obtained:
[1] = biological target: T1, Cry1Ab toxin (trypsinized 60 kD toxin) (Bacillus thuringiensis, UniProt P0A370 29-620, limits assumed, radioiodinated (125I, chloramine T) where used as labelled ligand); assay: competition ligand blot, 125I-Cry1Ab with unlabeled Cry1Ab on the 32 kD protein, gamma counting
T1 construct: domain: soluble trypsinized 60 kD toxin; also called Cry lAb

[2] = biological target: T1, Cry1Ab toxin (trypsinized 60 kD toxin); assay: blot of E. coli lysate incubated with Cry1Ab toxin, then anti-toxin antiserum

B1: PBW-866 expressed protein (BT-R2 aa 1210-1496), 32 kD (receptor)
chain: EEGKEFEVTIRATDGGTEPRSYSTDSTITVLFVPTLGDPIFQDNTYSVAFFEKEVGLTERFSLPHAEDPKNKLCTDDCHDIYYRIFGGVDYEPFDLDPVTNVIFLKSELDRETTATHVVQVAASNSPTGGGIPLPGSLLTVTVTVREADPRPVFEQRLYTAGISTSDNINRELLTVRATHSENAQLTYTIEDGSMAVDSTLEAVKDSAFHLNAQTGVLILRIQPTASMQGMFEFNVIATDPDEKTDTAEVKVYLISSQNRVSFIFLNDVETVESNRDFIAETFSVGF
notes: also called 32 kD protein
For B1, the Kd [1] was roughly 17 nM.

B2: PBW-421 expressed protein (BT-R2 aa 1367-1496), 21 kD (receptor)
chain: LYTAGISTSDNINRELLTVRATHSENAQLTYTIEDGSMAVDSTLEAVKDSAFHLNAQTGVLILRIQPTASMQGMFEFNVIATDPDEKTDTAEVKVYLISSQNRVSFIFLNDVETVESNRDFIAETFSVGF
notes: also called 21 kD protein
B2: no binding [2].
